Blank lines part the entries; values can stand above or below the binder they belong to.
What was measured:
[1] = target: T1, human FcRn beta-2-microglobulin complex, biotinylated, coupled to streptavidin Sepharose (human, UniProt P55899 24-297; P61769 21-119, limits assumed, biotinylated (Bulk BIRA kit, Avidity)); experiment: FcRn affinity chromatography, pH gradient 5.5 to 8.8; unlabelled antibody
T1 construct: Secreted complex purified from the supernatant; also called neonatal Fc receptor; human FcRn chromatography column
Experimental: (§1) The UV light absorption at a wavelength of 280 nm was used for detection. The column was regenerated for 10 minutes using 20% buffer B after each run.

[2] = target: T1, human FcRn beta-2-microglobulin …; experiment: FcRn affinity chromatography, pH gradient 5.5 to 8.8; dye-labelled antibody
Experimental: as §1

B1: Ixekizumab (antibody)
chain 1: not shown
chain 2: DIVMTQTPLSLSVTPGQPASISCRSSRSLVHSRGNTYLHWYLQKPGQSPQLLIYKVSNRFIGVPDRFSGSGSGTDFTLKISRVEAEDVGVYYCSQSTHLPFTFGQGTKLEIKRTVAAPSVFIFPPSDEQLKSGTASVVCLLNNFYPREAKVQWKVDNALQSGNSQESVTEQDSKDSTYSLSSTLTLSKADYEKHKVYACEVTHQGLSSPVTKSFNRGEC
relative retention time on FcRn affinity column [1]: 1.42 relative to anti-Her3 antibody standard

B4: anti-human phospho tau 422 antibody (antibody, human IgG1, kappa, L234A L235A)
heavy: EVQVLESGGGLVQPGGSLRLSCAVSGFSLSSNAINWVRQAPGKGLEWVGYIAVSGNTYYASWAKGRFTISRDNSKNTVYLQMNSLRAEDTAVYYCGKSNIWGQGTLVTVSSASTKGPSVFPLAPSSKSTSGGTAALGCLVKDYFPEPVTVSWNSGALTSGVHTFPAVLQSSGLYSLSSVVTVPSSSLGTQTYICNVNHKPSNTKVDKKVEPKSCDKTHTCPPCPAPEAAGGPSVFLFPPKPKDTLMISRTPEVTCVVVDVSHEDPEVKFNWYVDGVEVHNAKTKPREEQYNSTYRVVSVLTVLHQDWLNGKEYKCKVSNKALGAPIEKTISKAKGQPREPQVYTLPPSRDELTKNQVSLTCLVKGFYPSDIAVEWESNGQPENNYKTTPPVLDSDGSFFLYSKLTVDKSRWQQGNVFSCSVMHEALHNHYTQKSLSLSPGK
light: AQVMTQSPSSLSASVGDRVTITCRSSQSVRTNRLAWFQQKPGQPPKRLIYSASTLDYGVPSRFSGSGSGTEFTLTISSLQPEDFATYYCLGYFDSSADIVAFGGGTKVEIKRTVAAPSVFIFPPSDEQLKSGTASVVCLLNNFYPREAKVQWKVDNALQSGNSQESVTEQDSKDSTYSLSSTLTLSKADYEKHKVYACEVTHQGLSSPVTKSFNRGEC
notes: IgG1, unlabelled; also called anti-pTau antibody; anti-human p(422)Tau antibody
relative retention time on FcRn affinity column [1]: 1.13 relative to anti-Her3 antibody standard

Results, then the binder that gave them:

relative retention time on FcRn affinity column [1]: 0.33 relative to anti-Her3 antibody standard
B2: Vedolizumab (antibody)
chain 1: not shown
chain 2: DVVMTQSPLSLPVTPGEPASISCRSSQSLAKSYGNTYLSWYLQKPGQSPQLLIYGISNRFSGVPDRFSGSGSGTDFTLKISRVEAEDVGVYYCLQGTHQPYTFGQGTKVEIKRTVAAPSVFIFPPSDEQLKSGTASVVCLLNNFYPREAKVQWKVDNALQSGNSQESVTEQDSKDSTYSLSSTLTLSKADYEKHKVYACEVTHQGLSSPVTKSFNRGEC

relative retention time on FcRn affinity column [2]: 1.18 relative to anti-Her3 antibody standard
B3: anti-human phospho tau 422 antibody, labelled with pHAb dye (antibody, human IgG1, kappa, L234A L235A)
heavy: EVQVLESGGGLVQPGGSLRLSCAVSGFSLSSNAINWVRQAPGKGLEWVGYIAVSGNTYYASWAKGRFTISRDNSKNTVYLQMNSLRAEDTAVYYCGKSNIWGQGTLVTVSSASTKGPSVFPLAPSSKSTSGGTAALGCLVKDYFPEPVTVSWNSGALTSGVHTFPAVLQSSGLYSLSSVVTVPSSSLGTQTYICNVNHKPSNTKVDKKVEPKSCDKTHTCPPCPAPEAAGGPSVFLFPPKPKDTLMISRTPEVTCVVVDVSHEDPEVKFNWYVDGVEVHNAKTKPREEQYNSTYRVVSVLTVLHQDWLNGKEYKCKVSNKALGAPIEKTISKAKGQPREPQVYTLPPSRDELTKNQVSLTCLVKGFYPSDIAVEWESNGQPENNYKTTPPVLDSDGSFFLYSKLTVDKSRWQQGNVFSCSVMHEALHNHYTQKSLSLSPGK
light: B4 light
modifications: pHAb dye on a sulfo DBCO-PEG4-amine linker, clicked to the azide-modified N-glycan of the Fc-region
notes: also called anti-pTau antibody; anti-human p(422)Tau antibody
